Here are results for one substance from article PMC7367873, “Dissecting the sequence determinants for dephosphorylation by the catalytic subunits of phosphatases PP1 and PP2A” (Nature Communications, 2020).

The assay deals with T1, PP2Ac (Homo sapiens, UniProt P67775).
T1 construct: purchased Cayman Chemical 10011237
The experiment in a line: Phosphopeptide library dephosphorylation followed by mass spectrometry (PLDMS), PP2Ac. The format is biochemical. The note with it: all libraries, 25 nM PP2Ac, 100 µM library, 4 min, 25 °C, pH 7.5; library distribution 60% Ser to 40% Thr. An excerpt: In order to determine phosphatase specificity on the phosphopeptide level, we developed an in vitro phosphopeptide library dephosphorylation followed by mass spectrometry approach (PLDMS, Fig. 1a; see the methods for details). In this approach, phosphopeptide libraries would be treated with PP1, PP2A, or left untreated, purified, and analyzed by LC-MS/MS measurements. In the first step, design, synthesis, and validation of phosphopeptide libraries were required. The phosphopeptide libraries were designed to yield an even distribution of amino acids in the different randomized positions and to give high coupling efficiency during synthesis, thus reducing the number of by-products. […]
The individual libraries were incubated with recombinant PP1c or PP2Ac (Supplementary Fig. 1a) and the reaction was stopped by shifting the pH from 7.5 to 3 when 30–50% of the library was dephosphorylated, depending on phosphatase activity (see the methods for details, Supplementary Fig. 1b). Peptides were then separated from the recombinant protein by size-exclusion chromatography (SEC) (Supplementary Fig. 1c) and analyzed by LC-MS/MS (Fig. 1a). […]
For LC-MS analysis, the treated/ctrl peptide libraries were purified by SEC. […] A 0.1 M ammonium acetate buffer (pH 5) was used throughout the column equilibration and purification and the elution profile was recorded at 280 nm. […]

T1 sequence (P67775 1-308 limits assumed): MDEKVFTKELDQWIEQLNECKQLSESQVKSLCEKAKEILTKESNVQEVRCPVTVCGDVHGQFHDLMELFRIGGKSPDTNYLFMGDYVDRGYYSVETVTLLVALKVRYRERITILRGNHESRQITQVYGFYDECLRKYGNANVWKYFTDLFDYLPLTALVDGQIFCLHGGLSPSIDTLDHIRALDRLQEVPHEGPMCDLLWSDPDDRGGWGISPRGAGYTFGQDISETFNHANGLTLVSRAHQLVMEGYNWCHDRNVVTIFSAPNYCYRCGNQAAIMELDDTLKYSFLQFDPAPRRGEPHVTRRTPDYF

As for “PP2Ac: His-tagged recombinant PPP2CA ΔL309, purchased from Cayman Chemical”, the “pThr share of all sites dephosphorylated by PP2Ac” value came out at 83%.
